“Also recorded” adds a separate entry of the source.
System: porcine IgG
Experiment: IgG cleavage by IgdE, SDS-PAGE
Assay type: biochemical, pig
Settings: 3.3 μM porcine IgG, 16 h at 37° C., soluble fractions of E. coli expressing the construct, reducing SDS-PAGE
Experimental: (A) Schematic illustration of IgdE and the different rIgdE constructs with potential active site residues substitutions and the C-terminal truncation variant. The secretion signal peptide (residues 1-37) is marked in light grey, the transglutaminase domain is boxed and the potential active site residues and substitutions are indicated. (B) 3.3 μM porcine IgG was incubated for 16 h at 37° C. with soluble fractions of E. coli cells expressing different rIgdE constructs. The reaction was analyzed SDS-PAGE under reducing conditions. […] The weak protein band of 37 kDa is a contaminant present in lysate preparation and not related to IgdE activity.
0.5 mg/ml of porcine IgG (Sigma) in PBS or of other species (human, goat, cow, horse and mouse; all Sigma) were incubated with either crude extracts of induced E. coli carrying S. suis IgdE constructs mentioned above or 10 nM purified rIgdE for 16 h at 37° C. prior subjection to SDS-PAGE under either reducing or non-reducing conditions.
Samples for SDS-PAGE were prepared with either reducing or non-reducing sample buffer and heated to 95° C. for 5 min. 12% SDS-PAGE was either stained with Coomassie blue (Sigma), Coomassie Fluor™ Orange Protein Gel Stain (Invitrogen) or blotted to Hybond-P PVDF membrane (GE Healthcare) for western blot analyses. Membranes were blocked with 5% dry milk powder in 0.1% PBS-Tween, followed by incubation with horse-radish peroxidase conjugated antibodies. Goat anti-pig IgG-HRP (Thermo Scientific) and goat anti-porcine IgM-HRP (Thermo Scientific) was diluted 1:25′000 and goat anti-porcine IgA-HRP (Thermo Scientific) was diluted 1:12′500. Membranes were thoroughly washed with 0.1% PBS-Tween prior to development with Amersham ECL Select Western blotting detection reagent (GE Healthcare) according to manufactures instruction and pictured by LAS4000 imaging system (Fujifilm).

B1: rIgdE^D348A (protein)
chain: DENSHLQSPKNTNKIEVLNWEAFSKKLKDYSSDQRQFHVLKLGFENRLGTLSTREELEEFGKNNNFLVINGKVTQNIHDFPHILVMNKGDVIAHNEEDYHNQMRELRFSGNGDLHNSMEPKRIHALFKIELDSNKRQLLNAAGLGTAENSLKNINGMTIYSHGLTVDNKYYEDYSKYTHNSVKNINVTKERFIANDDLIHKLIESSEAMKQSSERDKVKAFVQYVANHTTYDWEAANKAVQNYADINYYLGSDLFAVTERQKAMCVGFSTTAARAFNMLGLPAYVVVGKNAEGVPHATARVYYDKKWHTIAGTGFITGNKHQRSAKYSEKHFSTIGEDSYDVVEAGQEPKAERNYMIIDSNYESWAMKQKTADLLLFNKEKSLVGLDYIAYVEPTYITENKKNHLLDIYKALKRKVEETKATDKDDKDDKQEGYDRVLQFVNSDIDKLSALSKITEEEFKALENSMDLARVFLGQMNAKAGKEFSEGETYQSYLKNRQKNNTNSDDDRNRNELQENQANSDEVSQNSKDASAPSVNSAQQSEELEGTPSTQETISAAPSQQTPAAPKALQAKTELEDKTETSSLGNTEMVSPSSETAQNTVDSKEESDAKLPYVEPSSKESSEAQVNTVSSPQVSSASPTSSETISTDTVTASQEKAESRVSAPQVISASQTSPETNSAEVVTTSQEVAKAPVSAPQVSSEIQTLSETAPTEVATEAPELSALESNPAPQTSLETTPTEEVTETPEPSVVESNSASPTSPETNSAEAVTTSQEMAEPSVSVPQVSSEIPTSSETAPAEVATEVSEESSSASQPSPETTPTETVTTSQEVAEAPVSAPQVSSEIPTSPETASTEVVVAKQEVADSPVSAPQVISEIPTSSETAPAEVATEVTEPSVVASSSASPTSPEANSTEVVVAKQEVADPLVSAPQTSSASLTLEVPKNEHLDEKADATTPNGVEANTHEAVSVPTSDIRVQDAGSDTVPQPYSLSATLFEEAISTVEPVGVATSSQERSAVAGKVKVPTSLERSNNSVEEEKVVDSNATIENREPEKKEILTSENVLNSLVTIWVALSTSFFMRYFSRGK
- IgG cleavage (32 kDa band) by rIgdE constructs: IgG cleavage (*) occurred; also recorded: somewhat reduced IgG cleaving activity

B2: rIgdE^C302S (protein)
chain: DENSHLQSPKNTNKIEVLNWEAFSKKLKDYSSDQRQFHVLKLGFENRLGTLSTREELEEFGKNNNFLVINGKVTQNIHDFPHILVMNKGDVIAHNEEDYHNQMRELRFSGNGDLHNSMEPKRIHALFKIELDSNKRQLLNAAGLGTAENSLKNINGMTIYSHGLTVDNKYYEDYSKYTHNSVKNINVTKERFIANDDLIHKLIESSEAMKQSSERDKVKAFVQYVANHTTYDWEAANKAVQNYADINYYLGSDLFAVTERQKAMSVGFSTTAARAFNMLGLPAYVVVGKNAEGVPHATARVYYDKKWHTIDGTGFITGNKHQRSAKYSEKHFSTIGEDSYDVVEAGQEPKAERNYMIIDSNYESWAMKQKTADLLLFNKEKSLVGLDYIAYVEPTYITENKKNHLLDIYKALKRKVEETKATDKDDKDDKQEGYDRVLQFVNSDIDKLSALSKITEEEFKALENSMDLARVFLGQMNAKAGKEFSEGETYQSYLKNRQKNNTNSDDDRNRNELQENQANSDEVSQNSKDASAPSVNSAQQSEELEGTPSTQETISAAPSQQTPAAPKALQAKTELEDKTETSSLGNTEMVSPSSETAQNTVDSKEESDAKLPYVEPSSKESSEAQVNTVSSPQVSSASPTSSETISTDTVTASQEKAESRVSAPQVISASQTSPETNSAEVVTTSQEVAKAPVSAPQVSSEIQTLSETAPTEVATEAPELSALESNPAPQTSLETTPTEEVTETPEPSVVESNSASPTSPETNSAEAVTTSQEMAEPSVSVPQVSSEIPTSSETAPAEVATEVSEESSSASQPSPETTPTETVTTSQEVAEAPVSAPQVSSEIPTSPETASTEVVVAKQEVADSPVSAPQVISEIPTSSETAPAEVATEVTEPSVVASSSASPTSPEANSTEVVVAKQEVADPLVSAPQTSSASLTLEVPKNEHLDEKADATTPNGVEANTHEAVSVPTSDIRVQDAGSDTVPQPYSLSATLFEEAISTVEPVGVATSSQERSAVAGKVKVPTSLERSNNSVEEEKVVDSNATIENREPEKKEILTSENVLNSLVTIWVALSTSFFMRYFSRGK
- IgG cleavage (32 kDa band) by rIgdE constructs: neither rIgdE^C302S nor rIgdE^H333A exhibited IgG cleaving activity

Reference: patent publication US12006530B2, “Streptococcal proteases” (priority 2016, dated 2024)
